Earlier results on one substance are cited in publication PMC4010523.

As usually defined, the Kd is the constant that tells how readily two partners part at equilibrium.

The target of this data set is complement C5 (Homo sapiens) (UniProt P01031).

Eculizumab: the Kd is 0.12 nM.
